± gives the uncertainty stated by the source.
B1: Far upstream element-binding protein 2, residues 142 to 214; numbered along this chain, Q92945 (parent)
chain: RTSMTEEYRVPDGMVGLIIGRGGEQINKIQQDSGCKVQISPDSGGLPERSVSLTGAPESVQKAKMMLDDIVSR

Variants of: B1
Experiment: abundance fitness (aPCA) (normalised: wild type 0, dead -1); higher = more abundant; growth selection in yeast, the domain comes from the species named
Details: Homo sapiens

Abundance fitness: each site, then its substitutions
K36: T 0.005 ± 0.056, R -0.058 ± 0.04, W -0.283 ± 0.051, C -0.182 ± 0.059, E -0.036 ± 0.051, D 0.021 ± 0.067, I -0.095 ± 0.074, S -0.066 ± 0.048, Q -0.034 ± 0.059, H -0.06 ± 0.074, F -0.32 ± 0.081, G -0.431 ± 0.043, A -0.082 ± 0.045, M -0.03 ± 0.059, L -0.043 ± 0.047, P -0.918 ± 0.07, N 0.073 ± 0.086, V -0.001 ± 0.043, Y -0.047 ± 0.11
C35: V -0.209 ± 0.043, M -0.866 ± 0.082, T -0.406 ± 0.058, D -0.564 ± 0.079, K -0.545 ± 0.071, Q -0.791 ± 0.087, G -0.756 ± 0.042, Y -0.847 ± 0.12, L -0.787 ± 0.06, P -0.658 ± 0.068, H -0.917 ± 0.13, A -0.029 ± 0.046, I -0.786 ± 0.16, W -1.19 ± 0.069, N -0.914 ± 0.14, R -0.848 ± 0.045, E -0.563 ± 0.054, F -1.15 ± 0.18
K28: W -0.51 ± 0.051, T -0.209 ± 0.064, V -0.419 ± 0.046, Y -0.337 ± 0.14
Q38: N -0.025 ± 0.082, I -0.038 ± 0.11, H 0.095 ± 0.078, R -0.028 ± 0.039, P -0.831 ± 0.069, C -0.019 ± 0.065, V -0.001 ± 0.048, L -0.112 ± 0.05, F -0.075 ± 0.12, D -0.112 ± 0.075, M 0.007 ± 0.069, G -0.172 ± 0.042, A 0.02 ± 0.044, E 0.129 ± 0.054, Y 0.027 ± 0.097, T 0.033 ± 0.053, K -0.068 ± 0.067
V37: K -0.965 ± 0.089, P -0.62 ± 0.065, R -0.804 ± 0.045, G -0.905 ± 0.045, H -0.962 ± 0.12, A -0.372 ± 0.048, N -1.21 ± 0.17, I -0.014 ± 0.07, M -0.14 ± 0.065, Y -0.974 ± 0.15, C -0.144 ± 0.068, S -0.815 ± 0.057, F -0.677 ± 0.1, D -0.597 ± 0.081, E -0.704 ± 0.064, W -0.916 ± 0.064, Q -0.811 ± 0.081, T -0.484 ± 0.069
G34: I -0.877 ± 0.2, V -0.96 ± 0.061, S -0.357 ± 0.061, F -0.887 ± 0.2, N -0.219 ± 0.1, E -0.243 ± 0.056, Y -0.998 ± 0.15, A -0.365 ± 0.049, T -0.537 ± 0.07, L -0.396 ± 0.057, K -0.319 ± 0.068, M -0.391 ± 0.074, R -0.307 ± 0.043, C -0.356 ± 0.077, H -0.384 ± 0.1, Q -0.247 ± 0.07, W -1.02 ± 0.087, D -0.274 ± 0.082, P -1.16 ± 0.13
P41: Y -0.099 ± 0.092, I -0.024 ± 0.094, N -0.141 ± 0.083, C -0.017 ± 0.084, F -0.122 ± 0.095, H 0.035 ± 0.091, G -0.055 ± 0.044, E -0.04 ± 0.055, M -0.09 ± 0.067, W -0.299 ± 0.06, T -0.05 ± 0.056, D 0.032 ± 0.087, S -0.017 ± 0.049, L -0.172 ± 0.048, R -0.061 ± 0.043, A 0.007 ± 0.047
G44: M 0.007 ± 0.069, T -0.017 ± 0.051, P -0.137 ± 0.054, R -0.071 ± 0.04, S -0.09 ± 0.047, W -0.338 ± 0.06, Q 0.034 ± 0.062, H -0.083 ± 0.069, L -0.125 ± 0.048, A -0.051 ± 0.045, Y -0.084 ± 0.12, V -0.133 ± 0.045, F -0.194 ± 0.096, C -0.105 ± 0.068, I -0.339 ± 0.13, E 0.008 ± 0.054, D 0.02 ± 0.066, K 0.019 ± 0.071
I39: G -0.648 ± 0.047, A -0.457 ± 0.05, P -0.477 ± 0.052, F -0.177 ± 0.09, R -0.645 ± 0.044, W -0.304 ± 0.055, D -0.515 ± 0.09, L -0.091 ± 0.043, N -0.578 ± 0.11, Q -0.543 ± 0.064, E -0.728 ± 0.076, K -0.701 ± 0.087, S -0.572 ± 0.053, Y -0.386 ± 0.085, C -0.172 ± 0.075, V -0.045 ± 0.046
S40: E -0.013 ± 0.047, D -0.076 ± 0.067, C -0.057 ± 0.067, I -0.069 ± 0.095, N 0.097 ± 0.089, H -0.078 ± 0.072, V 0.025 ± 0.044, A 0.027 ± 0.042, G -0.042 ± 0.037, T -0.059 ± 0.053, L 0.01 ± 0.049, K -0.007 ± 0.065, R -0.029 ± 0.037, Y -0.187 ± 0.089, P -0.011 ± 0.053, M -0.024 ± 0.068, W -0.207 ± 0.055, Q 0.009 ± 0.055
D42: S -0.038 ± 0.047, G -0.097 ± 0.042, F -0.163 ± 0.085, A -0.013 ± 0.049, P -0.006 ± 0.051, E -0.007 ± 0.053, K -0.014 ± 0.067, R -0.11 ± 0.039, Y -0.061 ± 0.085, T 0.007 ± 0.053, W -0.203 ± 0.055, N -0.069 ± 0.092, M -0.15 ± 0.057, L -0.232 ± 0.045, V -0.125 ± 0.044
Q31: E -0.08 ± 0.058, A -0.109 ± 0.046, Y -0.166 ± 0.13, W -0.316 ± 0.054, M -0.073 ± 0.071, P -0.98 ± 0.065, D -0.16 ± 0.081, S -0.136 ± 0.048, T 0.015 ± 0.057, H -0.005 ± 0.087, K -0.137 ± 0.08, F -0.105 ± 0.096, R -0.069 ± 0.039, I -0.135 ± 0.097, V -0.207 ± 0.05
I29: M -0.524 ± 0.061, S -0.819 ± 0.056, R -0.995 ± 0.046, H -0.984 ± 0.11, A -0.811 ± 0.053, N -0.869 ± 0.14, T -0.745 ± 0.065, F -0.682 ± 0.11, G -0.856 ± 0.044, V -0.185 ± 0.041, Q -0.841 ± 0.071, Y -0.971 ± 0.11, E -0.736 ± 0.064, P -0.849 ± 0.071, K -0.787 ± 0.078, W -0.981 ± 0.063
P47: R -0.104 ± 0.043, L -0.094 ± 0.046, I -0.168 ± 0.079, G 0.002 ± 0.048, E -0.06 ± 0.06, V -0.146 ± 0.057, Q -0.034 ± 0.06, A 0.02 ± 0.048, Y -0.028 ± 0.09, M -0.009 ± 0.07, W -0.32 ± 0.059, N -0.13 ± 0.096, F -0.14 ± 0.081, C -0.014 ± 0.076, T -0.018 ± 0.057, K -0.016 ± 0.069, S -0.021 ± 0.049, D -0.002 ± 0.072
S43: F -0.328 ± 0.088, P -0.083 ± 0.044, R -0.023 ± 0.041, Y -0.189 ± 0.081, K -0.1 ± 0.064, W -0.212 ± 0.054, M -0.101 ± 0.07, H -0.113 ± 0.065, C -0.135 ± 0.066, L -0.116 ± 0.048, D -0.031 ± 0.06, I -0.098 ± 0.086, E -0.082 ± 0.053, T -0.012 ± 0.048, Q -0.027 ± 0.052, N -0.046 ± 0.075, V -0.11 ± 0.049, G -0.034 ± 0.041
Q30: C -0.12 ± 0.069, G -0.24 ± 0.038, K -0.181 ± 0.065, W -0.507 ± 0.057, A -0.067 ± 0.042, M 0.107 ± 0.066, E -0.067 ± 0.053, Y -0.866 ± 0.28, H -0.384 ± 0.088, T -0.17 ± 0.053, V -0.132 ± 0.044, F -0.252 ± 0.11, R -0.066 ± 0.038, P -0.809 ± 0.063, D -1.02 ± 0.095, L -0.241 ± 0.049, S -0.078 ± 0.047, N -0.455 ± 0.11
E48: A -0.063 ± 0.043
L46: E -0.037 ± 0.049, D -0.045 ± 0.06, A -0.056 ± 0.051, F -0.097 ± 0.067, Y -0.153 ± 0.074, P -0.145 ± 0.06, S 0.004 ± 0.044, I -0.145 ± 0.07, G 0.07 ± 0.039, M -0.033 ± 0.055, N -0.144 ± 0.088, W -0.171 ± 0.047, C 0.031 ± 0.06, Q -0.052 ± 0.06, H -0.117 ± 0.085, K 0.061 ± 0.063, T -0.002 ± 0.05, V -0.104 ± 0.042
D32: Q 0.025 ± 0.06, F -0.364 ± 0.14, R -0.085 ± 0.042, T -0.074 ± 0.061, M 0.019 ± 0.066, W -0.243 ± 0.057, K -0.043 ± 0.084, S -0.047 ± 0.055, Y -0.167 ± 0.11, P -1.1 ± 0.11, E -0.101 ± 0.061, I -0.12 ± 0.15, H -0.072 ± 0.088, C -0.141 ± 0.082, G -0.156 ± 0.044, V -0.04 ± 0.052, A -0.006 ± 0.05, L -0.005 ± 0.05
S33: N -0.897 ± 0.15, M -0.806 ± 0.086, A -0.138 ± 0.044, R -1.06 ± 0.056, H -0.854 ± 0.11, T -0.006 ± 0.055, L -0.575 ± 0.055, G -0.861 ± 0.049, E -0.854 ± 0.061, C -0.053 ± 0.061, D -0.916 ± 0.096, I -0.452 ± 0.13, V -0.714 ± 0.053, W -1.09 ± 0.08, P -1.01 ± 0.075, F -0.474 ± 0.092, Y -0.55 ± 0.097
G45: L -0.193 ± 0.05, W -0.351 ± 0.056, K -0.207 ± 0.066, Q -0.1 ± 0.063, D -0.102 ± 0.07, T -0.079 ± 0.053, M -0.208 ± 0.063, Y -0.299 ± 0.1, S -0.113 ± 0.05, H -0.011 ± 0.095, E -0.064 ± 0.054, V -0.107 ± 0.046, A -0.211 ± 0.05, R -0.164 ± 0.042, F -0.218 ± 0.081, C -0.168 ± 0.064, N -0.11 ± 0.076

— the Human Domainome abundance scans (Beltran et al. 2025)
